Where a chain is given by its changes, count along the chain named. “Also recorded” adds a separate entry of the source.

Consider two molecules from patent US20170327561A1, “Anti-Angiogenic Properties of Collagen V Derived Fragments” (Ecole Normale Superieure de Lyon, priority 2014, published 2017).

Data set [1] in a line: Heparin-Sepharose affinity chromatography (NaCl gradient elution). The format is binding. Conditions: linear NaCl gradient 0-500 mM, Tris-HCl pH 7.4. As to the method: Heparin-Sepharose affinity columns (HiTrap Heparin, Amersham) were equilibrated in 50 mM Tris-HCl (pH 7.4). Protein samples were loaded onto a column, and a programmed linear gradient of 0-500 mM NaCl, 1M Tris-HCl (pH 7.4) was applied at a flow rate of 0.5 ml/min, confirmed by continuous conductivity measurement. Fractions (1 ml) were collected, and the elution profile of protein samples was determined by monitoring the absorbance at 214 nm. To accurately compare elution positions of the mutant, its elution with NaCl gradient was achieved versus a standard HEPV elution.
The affinity of both peptides for heparin is compared, on a heparin-sepharose column, determined with the necessary quantity of NaCl to elute the peptides.

Data set [2] has as its system human dermal microvascular endothelial cells (HDMEC). Description: Quantitative real-time RT-PCR of collagen genes in HEPV-treated endothelial cells. Format: cell-based. The conditions noted are these: HDMEC treated with HEPV for 4, 12 and 24 hours; relative to untreated controls, normalized to L30. As to the method:
Expression of COL14A1 and COL18A1 mRNA in human dermal microvascular endothelial cells (HDMEC) treated with HEPV for 4, 12 and 24 hours, analyzed by real-time PCR. Values are normalized to the house keeping gene L30. Quantification is expressed relative to controls (cells cultivated in the same conditions without HEPV). Values are mean±SEM (n=3).
Total RNA was isolated from 8×10^6 cells by phenol-chloroform-isopropanol extraction (Trizol Reagent, Invitrogen). A reverse transcriptase reaction was performed on 1 μg of RNA using M-MLV reverse transcriptase (Promega). Quantitative PCRs were performed using SYBR Green Supermix (Biorad) and specific primers using a I-Cycler Optical System (Biorad). The following primers were used: […]
L30 was selected as housekeeping gene and used for normalization. Relative transcript abundances were determined as well known by the person skilled in the art. Relative gene expression was determined using the 2^−ΔΔC^T method. Student's t-tests were used to determine statistical significance (n=4).
A transcriptomic analysis has been performed, in order to identify the HEPV-regulated genes. Endothelial HDMEC cells have been treated with HEPV or not, for 4, 12 and 24 hours.

Data set [3] relates to VEGF-induced ERK1/2 phosphorylation in HUVEC. Description: Phosphorylation assay (Western blot) after VEGF stimulation. The conditions noted are these: peptide 8 μg/mL 24 h, VEGF 50 ng/ml. The format is cell-based. As for the experimental part:
HUVEC were seeded at 2.10^5 cells/wells in ECGM2 in 6-well plates. The cells were treated with HEPV or ΔHBS-HEPV (8 μg/mL) during 24 h in serum free medium and then stimulated with FGF-2 or VEGF (50 ng/mL) for 5 or 20 minutes at 37° C. Cells were then washed twice with cold PBS and scraped and lysed at 4° C. in lysis buffer 1% NP-40 (150 mM NaCl, 50 mM Hepes pH 7.4, 5 mM EDTA, 10% glycerol, 1% NP-40, complete protease inhibitor cocktail (Roche), 1 mM Na3VO4). After centrifugation (13 000 g, 15 min, 4° C.), soluble proteins were collected. Protein amount was determined by BCA protein assay (Pierce) and equal amounts of proteins (10 μg) were loaded on SDS-PAGE and transfer on PVDF membrane at 100 V during 1 h. […] Immunoreactivity was detected by sequential incubation with horseradish peroxidase-conjugated secondary antibodies purchased and ECL detection reagents purchased from Biorad. […]
The aim of the experiments presented in FIG. 4 was to determine if, after incubation of endothelial cells with the peptide HEPV, the response to FGF-2 was affected by the presence of this peptide. The measured response to FGF-2 is the level of phosphorylation of proteins ERK 1/2 and Akt, involved in the signalization pathway of FGF-2 and VEGF, as determined with specific antibodies. […]

Data set [4] relates to murine TS/Apc breast cancer tumors. The data set can be described thus: Immunohistology of tumor sections (anti-CD31, anti-Ki67). The format is in vivo, nude mice. As for the experimental part: At day 20, 3 mice/group were sacrificed for immunohistology studies. At day 35 days after implantation all remaining tumors were extracted.
Frozen sections (8 μm) from tumors were fixed in acetone for 10 min. Sections were then washed 3×5 min in Tris-buffered saline containing 0.1% Tween 20, and endogenous peroxidases were blocked with 0.1% H2O2 in methanol for 20 min. Sections were then sequentially incubated for 1 h with a rat monoclonal anti-CD31 antibody (MEC13.3;1:500; Pharmingen) or rabbit anti-Ki67 (1:100; AbCAM) and for 1 h with goat anti-rat antibody for CD31 (1:500; Cell-signaling) or goat anti-rabbit for Ki67 (1:200; Dako). […] Sections were counterstained with hematoxylin and all were mounted.
Staining against the endothelial marker CD31 by means of immunohistochemistry was followed by observation under low magnification scope (100×), five field of view of each tumor (5 tumors by condition). Then, vessels quantity were measured in each of these areas utilizing ImageJ software (http://rsbweb.nih.gov/ij). All counts were performed in a blinded manner.
After immunohistochemical staining against Ki67, slides were observed under high magnification scope (200×). Six to nine areas by tumor were photographed. These photographs were analyzed by the plugging ImmunoRatio in ImageJ software (http://rsbweb.nih.gov/ij). The Ki67 index was evaluated in a blinded manner and calculated as Ki67-positive cells divided by all tumor cells in one field.
Mice from each group are sacrificed at day 20 and day 33 to check the formation of novel blood vessels. The account of the blood vessels is realized by observations of the tumors samples.
The proliferation of tumor cells with an antibody anti-Ki67 is also realized on these tumor samples.

Data set [5] is described as follows: Organ distribution of the peptide after injection into the blood system. Format: in vivo. Conditions: mouse.
Data set [6] deals with murine TS/Apc breast cancer cells implanted subcutaneously. The data set can be described thus: Antitumor activity, tumor growth by caliper. The format is in vivo, nude mice. The conditions noted are these: 50 μg peptide every 2 days, versus HEPV-ΔHBS control; from day 20 of treatment. As for the experimental part: (A) Murine Tsa/Pc breast cancer cells implanted subcutaneously are treated from day 5 repeatedly by peritumoral injections of 50 μl PBS containing 50 μg control (HEPV-ΔHBS) of HEPV peptides every 2 days. […] Tumors sections were immunostained using an anti-CD31 antibody that detects blood vessels (B) or an anti-Ki67 antibody that stains proliferating cells (C).
TS/Apc-pGL3 is a cell line derived from the original adenocarcinoma TS/Apc mouse cell line stably transfected with the pGL3-luciferase reporter gene (Promega, Charbonnieres, France). Cells were cultured at 37° C. in a humidified 5% CO2 incubator in RPMI 1640 supplemented with 1% glutamine, 10% fetal bovine serum, 50 units/ml penicillin, 50 μg/ml streptomycin, β-mercaptoethanol (25 μM) and 700 μg/ml Geneticin® (G418 sulphate; Gibco, Paisley, UK).
Twenty female athymic Swiss nude mice, purchased from Janvier (Le Genest Saint Isle, France) at 6-8 weeks of age were used and maintained under specific pathogen-free conditions. Mice received a subcutaneous (s.c.) injection of 10^6 TS/Apc-pGL3 cells suspended in 200 μl of PBS into the right flank usually results in formation of 6-8 mm-diameter tumors after one week. […] Tumor growth was evaluated using calipers.
Tumors have been induced by implantation of murine breast cancer cells (TSA) in nude mice. […] The volume of the tumors is measured with a caliper.

Data set [7] deals with FGF-2 induced angiogenesis. Description: Hemoglobin measurement in implanted FGF-2 sponges. The conditions noted are these: 20 μg peptide first day then every two days, after 7 days of treatment. Format: in vivo, nude mice. An excerpt: (B) Formation of new blood vessels in nude mice implanted with a sponge impregnated with FGF-2 or PBS. After repeated treatments with peptides HEPV or HEPV-ΔHBS, the sponges are extracted and the presence of hemoglobin quantified. The presence of hemoglobin reflects the blood vessels content, as documented by the photos.
Disc Cellspon cellulose sponges (thickness 2 mm, diameter 10 mm; Cellomeda, Turku, Finland) were implanted under the skin of the mice. Prior to implantation, the sponges were hydrated with 50 μl of either PBS (negative control) or FGF-2 (200 ng/50 μl; positive angiogenic control) (recombinant FGF-2, Eurobio-AbCys, Les Ulis, France). […]
After implantation of the PBS or FGF-2 treated sponges and treatment with 50 μl containing 50 μg HEP peptides at DO, 2, 3 and 5, the hemoglobin content was measured at D8. […] Each sponge was homogenized in 1 ml of RIPA lysis buffer containing a cocktail of protease inhibitors, centrifuged at 200 g, and the supernatants were quantified. The extent of vascularization of the sponge implants was assessed by measuring the concentration of hemoglobin with Drabkin's reagent (Sigma-Aldrich, Saint-Quentin Fallavier, France). […]
20 μg of HEPV or ΔHBS-HEPV have been injected simultaneously with PBS or FGF-2, at the first day and then every two days. After 7 days of treatment, sponges are taken out and analyzed. […]

In data set [8] the test system is FGF-2-induced ERK1/2 and Akt phosphorylation in HUVEC. The data set can be described thus: Phosphorylation assay (Western blot) after FGF-2 stimulation. Format: cell-based. The conditions noted are these: peptide 8 μg/mL 24 h, FGF-2 50 ng/mL. As to the method: HUVEC were seeded at 2.10^5 cells/wells in ECGM2 in 6-well plates. The cells were treated with HEPV or ΔHBS-HEPV (8 μg/mL) during 24 h in serum free medium and then stimulated with FGF-2 or VEGF (50 ng/mL) for 5 or 20 minutes at 37° C. Cells were then washed twice with cold PBS and scraped and lysed at 4° C. in lysis buffer 1% NP-40 (150 mM NaCl, 50 mM Hepes pH 7.4, 5 mM EDTA, 10% glycerol, 1% NP-40, complete protease inhibitor cocktail (Roche), 1 mM Na3VO4). After centrifugation (13 000 g, 15 min, 4° C.), soluble proteins were collected. Protein amount was determined by BCA protein assay (Pierce) and equal amounts of proteins (10 μg) were loaded on SDS-PAGE and transfer on PVDF membrane at 100 V during 1 h. The blots were blocked with 5% BSA in TBS-T buffer (20 αmM Tris-HCl pH 7.4 and 0.05% Tween 20) and incubated with primary antibodies in TBST containing 5% bovine serum albumin, overnight at 4° C. Immunoreactivity was detected by sequential incubation with horseradish peroxidase-conjugated secondary antibodies purchased and ECL detection reagents purchased from Biorad. The antibodies used for phospho-protein detection were the followings: anti-AKT, anti-phospho-Akt (Ser473), anti-ERK1/2 and anti-phospho-ERK1/2 (Thr202/Tyr204, Thr185/Tyr187) (all from Cell Signaling Technology).
The aim of the experiments presented in FIG. 4 was to determine if, after incubation of endothelial cells with the peptide HEPV, the response to FGF-2 was affected by the presence of this peptide. The measured response to FGF-2 is the level of phosphorylation of proteins ERK 1/2 and Akt, involved in the signalization pathway of FGF-2 and VEGF, as determined with specific antibodies.
Endothelial cells HUVEC have been treated during 24 hours with HEPV or the control peptide ΔHBS-HEPV, and have then been stimulated with FGF-2 (FIG. 4A) or VEGF (50 ng/ml) (FIG. 4B).

B1: HEPV: 12 kDa recombinant fragment of the collagen V pro-α1 chain, residues Ile824 to Pro950, SEQ ID NO. 1, binds heparin (protein, listed as Homo sapiens)
chain: IKGDRGEIGPPGPRGEDGPEGPKGRGGPNGDPGPLGPPGEKGKLGVPGLPGYPGRQGPKGSIGFPGFPGANGEKGGRGTPGKPGPRGQRGPTGPRGERGPRGITGKPGPKGNSGGDGPAGPPGERGP
modifications: HEPV
Take B1: in data set [1], the “NaCl concentration needed to elute the peptide from heparin-sepharose” value stood at 0.35 M. Also, in data set [2], the “Expression of COL4A1 mRNA” value is reported as “up-regulated” and the “Expression of COL18A1 mRNA” value is listed as “up-regulated”. The “Phosphorylation of ERK1/2 after stimulation with VEGF” value in data set [3] was “present a phosphorylation of ERK1/2”. In addition, in data set [4] (day 20), the “Blood vessels density in tumors (anti-CD31), compared to ΔHBS-HEPV-treated mice” value was “significant decrease” and the “Tumor cells proliferation (anti-Ki67)” value is “significant decrease”. Also, in data set [4] (day 33), the “Blood vessels density in tumors (anti-CD31), compared to ΔHBS-HEPV-treated mice” value is reported as “less significant” and the “Tumor cells proliferation (anti-Ki67)” value is “the proliferation strikes back”. The “Toxicity (concluded from absence of liver accumulation)” value in data set [5] is reported as “non-toxic”. For the same molecule, in data set [5] (results not shown), the “Accumulation in various organs” value was “does not accumulate non-specifically in various organs, except in kidney and bladder”; the “Accumulation into the liver” value was “does not accumulate into the liver”. The “Tumor growth (tumor volume)” value in data set [6] is “slows down; also recorded: significantly (p<0.05) slowed down”. Moreover, the “Decrease of hemoglobin level in sponges, in comparison with mice treated with ΔHBS-HEPV” value in data set [7] was found to be 2.5 times. In data set [8], the “Phosphorylation of Akt after stimulation with FGF-2” value is given as “inhibits” and the “Phosphorylation of ERK1/2 after stimulation with FGF-2” value is on record as “inhibited”.

B2: ΔHBS-HEPV: non-functional HEPV mutant, SEQ ID NO. 4, Lys905, Arg909 and Arg912 replaced with alanines; negative control (protein)
chain: B1 chain with K82A, R86A, R89A
modifications: Synthetic Mutant of HEPV
notes: 4, Lys905, Arg909 and Arg912 replaced with alanines; negative control
With B2, the “NaCl concentration needed to elute the peptide from heparin-sepharose” value in data set [1] is given as 0.2 M. For the same molecule, in data set [8], the “Phosphorylation of ERK1/2 after stimulation with FGF-2” value is listed as “inefficient”.
